According to US20090220532A1 (PROYECTO DE BIOMEDICINA CIMA S L, published 2009):

Biological target: human TLR4 (Toll-like receptor 4) on HEK293 cells expressing human TLR4-MD2-CD14 (human, UniProt O00206 24-839)
Assay: cell-based or functional assay

Sequence of human TLR4 (Toll-like receptor 4) on HEK293 cells expressing human TLR4-MD2-CD14 (O00206 24-839): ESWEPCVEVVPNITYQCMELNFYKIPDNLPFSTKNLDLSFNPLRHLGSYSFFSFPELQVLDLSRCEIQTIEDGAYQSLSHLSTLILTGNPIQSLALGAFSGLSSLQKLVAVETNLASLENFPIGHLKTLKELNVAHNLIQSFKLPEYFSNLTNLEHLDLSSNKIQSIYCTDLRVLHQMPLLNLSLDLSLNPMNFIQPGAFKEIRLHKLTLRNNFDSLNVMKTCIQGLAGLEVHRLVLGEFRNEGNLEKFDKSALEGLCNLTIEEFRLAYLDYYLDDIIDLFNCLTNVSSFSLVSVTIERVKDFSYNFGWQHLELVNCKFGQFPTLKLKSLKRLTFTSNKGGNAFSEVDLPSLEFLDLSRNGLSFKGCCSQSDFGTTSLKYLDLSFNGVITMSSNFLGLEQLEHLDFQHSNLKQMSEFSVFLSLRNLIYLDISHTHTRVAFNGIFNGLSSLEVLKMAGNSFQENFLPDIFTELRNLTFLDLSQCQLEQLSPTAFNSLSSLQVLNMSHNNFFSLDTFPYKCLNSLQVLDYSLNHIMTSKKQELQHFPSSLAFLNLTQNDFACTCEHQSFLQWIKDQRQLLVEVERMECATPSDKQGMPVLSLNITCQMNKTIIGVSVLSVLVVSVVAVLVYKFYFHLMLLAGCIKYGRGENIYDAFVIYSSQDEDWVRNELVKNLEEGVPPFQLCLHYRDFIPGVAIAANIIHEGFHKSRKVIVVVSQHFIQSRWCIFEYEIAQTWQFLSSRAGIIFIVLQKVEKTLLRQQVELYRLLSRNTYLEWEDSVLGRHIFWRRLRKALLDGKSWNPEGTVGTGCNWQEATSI

fold NF-κB induction factor (SEAP reporter under NF-κB-inducible ELAM-1 promoter; OD of HEK293/TLR4-MD2-CD14 supernatants divided by OD of HEK293/LacZ supernatants), 100 nM EDA-SIINFEKL: 7 fold
B1: EDA-SIINFEKL-6xHis fusion protein (recombinant proteinaceous vector) (ligand)
chain: MNIDRPKGLAFTDVDVDSIKIAWESPQGQVSRYRVTYSSPEDGIRELFPAPDGEDDTAELQGLRPGSEYTVSVVALHDDMESQPLIGIQSTQLESIINFEKLTEWAAALEHHHHHH
